# The DeepSol protein solubility set
# Assay: soluble on expression in E. coli; label from the status in PepcDB or PDB records
row,Sequence,soluble on expression in E. coli
1,MIKIPRGTQDILPEDSKKWRYIENQLDELMTFYNYKEIRTPIFESTDLFARGVGDSTDVVQKEMYTFKDKGDRSITLRPEGTAAVVRSYIEHKMQGNPNQPIKLYYNGPMFRYERKQKGRYRQFNQFGVEAIGAENPSVDAEVLAMVMHIYQSFGLKHLKLVINSVGDMASRKEYNEALVKHFEPVIHEFCSDCQSRLHTDPMRILDCKVDRDKEAIKTAPRITDFLNEESKAYYEQVKAYLDDLGIPYTEDPNLVRGLDYYTHTAFELMMDNPNYDGAITTLCGGGRYNGLLELLDGPSETGIGFALSIERLLLALEEEGIELDIEENLDLFIVTMGDQADRYAVKLLNHLRHNGIKADKDYLQRKIKGQMKQADRLGAKFTIVIGDQELENNKIDVKNMTTGESETIELDALVEYFKK,soluble
2,MQSVNRKSNKGATANIDAQEPFSVLLMGIDTGDLGRTEQGRSDTTMVVTINPKENKSTMISLDRDILTDIVGNDTQDKLNHAYAFGGAEMAINTVQELLDIPIHHYVSINMKGLKDLIDAVGGIEVDNTIGEFTLDGITVPAGKIKLDGTTGLAYARMRHEDPEGDVGRQRRQREVVEKIVRKVMSFDGVSKYRKILDAVEANVKTDLTWDDMMDIQSKYLSAFKTIDSEQLQGYSATIDDIYYQVLDPNSLYKTQTTLRKQLGLKEHASEREKDLAFYNQFSYAVTDTALIGESGDSSANSSTSSSSTADTTAGQTEYNGNTQQAAEGTYDPNTYVDPNAYTDPNAYADPNTYVDPNAPQYLEHHHHHH,soluble
3,MTLEKKEYGAPGFWPGSMIGRVHAFETPAPLTRAQLDRLRDEFFETRTEGHLEIWTAIRAASHAQEAGDDELAYAIITAVGILPAEVGPAGEGLGERIPFAEQPLDRLLGMICGCCFPAFTRYRTLERVYDQRGFLYETPKECIATPSNVLPDESTEASAR,not soluble
4,MGSDKIHHHHHHMSQPLFPVVEVPDFISEDSQYDTQYKRSMKWNTELGDFVRDGAHRIKECDGKEAFAIWCFKIAQTERYRCLAYPDSIGTEMERAMDNDDEKTVESMVERTITDAIMVNPRAENVRDFQFTWEGDQMHVTFKVKGSNWDEEIEISL,not soluble
5,MENSEKLANSKEVIAYIAERFPKCFILEGEAKPLKIGIFQDLAERLSDDPKVSKTQLRAGLRQYTSSWRYLHGVKPGASRVDLDGNPCGELEEEHIEHAKATLEESKAKVATRRKEQAKKAREEAKAKKTARAATPPKRRPQPAAKKVEQPVETRALNADEITVGNNVSVNMGKGNMPATIVEINKDDVRIRLSNGLQMVVKAENLRS,not soluble
6,MPSNTSIRSNSNAIKARAPASAPKRPTSAEYVKKYTEYLATGHQIRHALQRLYDLNCSIQVFEECLTEKVILQKYTGQSEYQYPVTLLMNKFDDLRKREIRVANEKWSKNGELSAAMFTNKMVMEQRMKDLEKMDQKTANNLFVAALGDSCFIPKKKVDYSKFKITKRSKSSTSTSPSSSSSETSSPIA,not soluble
7,MEWYMGKYIRPLSDAVFTIASDDLWIESLAIQQLHTTANLPNMQRVVGMPDLHPGRGYPIGAAFFSVGRFYPARRRGNGAGNRNGPLL,not soluble
8,GSHMTTSSRYKTELCRTYSESGRCRYGAKCQFAHGLGELRQANRHPKYKTELCHKFKLQGRCPYGSRCHFIHNPTED,soluble
9,MQRLTSARLFKGAFNVGQKRATNASAGAAAVASRPQALPQPHQASTMTPPAAAPAVAAPQASLTRSASLVAPPSTSAPPSGAAPPMPKKKIIRRIIKRKKASAGVATGEAVHRAAAEAVSQTAAPAAPSEPAFAAATGAQPPRRGLAMLNAIRKHPEGSIEEQPQVVTEKHSEEMATAQEQYHEHTHDRHPAIQETEEAHEHHYHHDAASEKVTSSRYNAASAEAETDATGGSDAMDDATSNGSSSSRKTAMVKGYRIDEVGALCSSSDAMFARRLPSGGCQFFAWPGTPLSVASSAIVSMPDTIRTVHAVFGRAGTPIDIVMDIDAQVPQEYWTMSKIRVYQRKVLDDVLTPLKEEIEKIGEEIETQVVLQSPNLKKASFHVHTRLKDAAFADFYSLHGFLFRFQDRLPNVDLQIYRPNGMLRMFSCMKENRTSAIIVFDESKWNIGFPGGKVSDEQAALHSICVRDPSTFSRVLTFEAPRQSNMPAYGGSKGACGDGSEGALRPPQVLLPLTEKEAIESASRWLRQATEVEVGEWRTWIGLGLCAYRVAYHFRNARNLPRPAMAEMLDAWTEASRKCPLKFHSGECEARWAAFDPEKLGSQSDWWSAYKRLGRLEVPMREAMEREAAFAARCASRYQAAPAAEVPFAPEPPQSAAAVGSVTSASRKMKQQKKAFRRA,not soluble
10,MGSDKIHHHHHHMPDLTTAPDAEILMAQPRGFCAGVDRAIEIVERALTRFGAPIYVRHEIVHNAYVVADLRRKGAVFVRELDEVPAGATVIFSAHGVSKDVRAEAASRGLNVFDATCPLVTKVHVEVGKMRAEGCEIVMIGHRGHPEVEGTMGQAEGGMLLVESVADVAGLVVADPARLAYVTQTTLSVDETLEIVAALKARFPLIREPKKQDICYATQNRQDAVKFMAPQVDVVIVVGSPNSSNSNRLRELAARLGVPAYMVDAPDQVHPEWVAGKRRIGLTAGASAPEELAQSIVARLRELGAGHVRALAGIEENMAFPLPRGLQAAATVGVTA,not soluble
11,MASHWMIYGANGYTGRLVAEQAQREGLTPLLGGRNPAALHALGSQLGLECRVFDLGDPQACREALDQVKVVAHCAGPFSATSTPMIAACRAAGTHYVDITGEIAVFEQAHAGDAEAREAGIVVCPGVGFDVIPTDCLAACLKEALPDAQRLALGFDTGSGLSTGTAKTSVEGLKFGGKIRENGRLRDVPLGYKRRDIDFGRGLRHAVTIPWGDVATAYYSTGIPDIEVYLPAPPLLALGMRLIDPLRPLLGRQRVQDWLKGQVDKRIAGPDQAARERLRTWVWGEARNARGERRTARLETANVYDLTLHGVLLAVRHLLDYQGPGGYFTPSRLLGARCVESLPGSGRITVIG,not soluble
12,MSADNLLLDFTSPGAIPPDPAEVVRRVVDETQTTMRALESLLENERIEDMTGWRLLAMFYLATDRLNDLAKIEKQYKSITGVSLSADLKQKYPQWFNGEAVSHPVVFEIPKKITAAALPDSIIIQRGQCSPGGILLDFSQVQEIDNDGLKKLAQLFSSLAQENTRPKLRQADRFITCLQNKAETGTGTRAIWDVLFAYERFRDDREAFEEKAIKFAVLYGISPPSWE,not soluble
13,MHHHHHHSSGVDLGTENLYFQSMAHNKIPPRWLNCPRRGQPVAGRFLPLKTMLGPRYDSQVAEENRFHPSMLSNYLKSLKVKMGLLVDLTNTSRFYDRNDIEKEGIKYIKLQCKGHGECPTTENTETFIRLCERFNERNPPELIGVHCTHGFNRTGFLICAFLVEKMDWSIEAAVATFAQARPPGIYKGDYLKELFRRYGDIEEAPPPPLLPDWCFEDDEDEDEDEDGKKESETGSSASFG,soluble
14,MAHHHHHHMPVRRYGGRYNSSSPGVSNALNPSRTAGWPLSPSPATGSKPASTHHDPVPQEAYYVKDEADARHQQQAPLREPSVEVEVEIIDDEPPRGSQKPLSVAPCTANANNSSGGSKCNAITASRYTFYTNAYQKSVYEALRSLRPLPELQEPRRVKEYAETSLKDSLYRIVEAHDVIMVAGAFFGDEGKGKTVDAVARHPLCTCIARVNSGENAGHTVYDKAGRKFVFNLAPSGLLLPGKRNYIGPECVMDPVSFMEKEVIQLIDAGIDYRDRLFIGNVCIVTPYHKLLDLLGSAANSSTLKGMAPVHGSKVMKRGIRLDHIFNDDETLRKRLEKDMDTYFGLLKVKNLSDADVVRLCREENSDGVVRVPDYVIAFAQAEDKVEFLVKLYRDRVRHNPGFPARCDVTYELHAALLRGEKVLLEGPQSYWLSNARTKFWESTTSADTTAAGLLAASQLNFQKFKSVVLNVHKAPGSSRVGIGACPSSFVPQDYFSAQNIKTLRDLPSATCAHFEAVQRTLFRDGFPHSNDKARHNGIMAPVEYSDETGTYNIGVAMAIASAQHHGECGAVTKKPRVCGFFDCVLHHEVNNIQGPYLTISALDRGDEYDKVGVTIAYVYYSPEGKQVDVNGHVYKNGDIIRAGDPVPSEPALYHCHPIVKLIDGWRDNPIAAAKRRRNAPLPRGVCELLSAIEYFTNCKILSIGNGPNGDDIIYLRQ,not soluble
15,MAHHHHHHMGTLEAQTQGPGSMNLDDIGSGSNAPEEVNVVIEVSQDSHPVKYEFDEKNGALWVDRFLPTAMYYPCNYGFIPNTIAGDGDPVDVLVLARFPVMPGAVICVRPVGVLMMNDEKGEDAKVLAVPATKVDQYYGNIVNYSDLPSSFLDSISHFFSFYKKLEKDKFVSVGCWQDAASAKELIRSAIIAAKKGEN,soluble
